Data: PMC5003812 (Cell Reports, 2016)

Molecular target: recombinant human FOXO3a (human, UniProt O43524 1-673)
Assay: pull-down

Chain of recombinant human FOXO3a (O43524 whole entry): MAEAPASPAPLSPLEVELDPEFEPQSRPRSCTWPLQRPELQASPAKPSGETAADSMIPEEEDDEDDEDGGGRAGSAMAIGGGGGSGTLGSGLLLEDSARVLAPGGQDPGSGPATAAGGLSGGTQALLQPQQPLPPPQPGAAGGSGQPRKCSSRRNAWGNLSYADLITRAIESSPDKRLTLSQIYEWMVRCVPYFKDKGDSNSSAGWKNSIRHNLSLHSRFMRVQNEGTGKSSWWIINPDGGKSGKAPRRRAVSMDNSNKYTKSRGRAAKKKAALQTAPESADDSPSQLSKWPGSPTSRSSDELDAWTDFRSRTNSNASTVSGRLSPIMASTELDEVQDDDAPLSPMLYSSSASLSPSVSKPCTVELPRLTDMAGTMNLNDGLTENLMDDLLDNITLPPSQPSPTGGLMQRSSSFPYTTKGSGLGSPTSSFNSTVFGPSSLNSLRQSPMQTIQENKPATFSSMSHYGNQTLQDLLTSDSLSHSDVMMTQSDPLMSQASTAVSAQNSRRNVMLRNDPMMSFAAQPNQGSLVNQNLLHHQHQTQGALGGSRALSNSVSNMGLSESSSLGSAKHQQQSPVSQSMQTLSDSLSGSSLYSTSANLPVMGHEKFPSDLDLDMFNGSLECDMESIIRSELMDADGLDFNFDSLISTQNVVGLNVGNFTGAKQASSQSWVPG

- binding result: binds
B1: GST-ATM fragment spanning 2,842–3,056 aa (domain or fragment)
chain: PAIWFEKRLAYTRSVATSSIVGYILGLGDRHVQNILINEQSAELVHIDLGVAFEQGKILPTPETVPFRLTRDIVDGMGITGVEGVFRRCCEKTMEVMRNSQETLLTIVEVLLYDPLFDWTMNPLKALYLQQRPEDETELHPTLNADDQECKRNLSDIDQSFNKVAERVLMRLQEKLKGVEEGTVLSVGGQVNLLIQQAIDPKNLSRLFPGWKAWV
